In US20220193237A1 (Bristol-Myers Squibb, published 2022):
Read-outs that look alike come from different tables or passages of the source.

How the values were obtained:
[1] = molecular target: T1, human CTLA-4 on 58 α-β-CTLA-4/CD3 ζ cells (human; mouse (mCD3ζ)); test: flow cytometry (GMFI), full-length IgG on 58 α-β-CTLA-4/CD3 ζ cells, pH 7.2
T1 construct: also called 58αβ-hCTLA4/mCD3ζ cells; 58αβ-CTLA4/mCD3ζ cells

[2] = molecular target: T1, human CTLA-4 on 58 α-β-CTLA-4/CD3 ζ …; test: flow cytometry (GMFI), full-length IgG on 58 α-β-CTLA-4/CD3 ζ cells, pH 6.3
[3] = molecular target: T1, human CTLA-4 on 58 α-β-CTLA-4/CD3 ζ …; test: flow cytometry (GMFI), full-length IgG on 58 α-β-CTLA-4/CD3 ζ cells, pH 6.6
monomeric human CTLA-4 [4] = molecular target: T2, monomeric human CTLA-4 (human, UniProt P16410 36-161, limits assumed); test: SPR, captured Fab, pH 6.0
T2 construct: Soluble monomeric analyte in SPR; also called huCTLA-4
T2 sequence: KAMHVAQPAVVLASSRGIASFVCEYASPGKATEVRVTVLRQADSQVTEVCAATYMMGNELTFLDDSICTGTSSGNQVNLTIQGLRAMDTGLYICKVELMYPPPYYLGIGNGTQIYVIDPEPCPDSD

monomeric human CTLA-4 [5] = molecular target: T2, monomeric human CTLA-4; test: SPR, captured Fab, pH 7.4
monomeric human CTLA-4 [6] = molecular target: T2, monomeric human CTLA-4; test: SPR, captured Fab, pH 6.0 vs 7.4
[7] = molecular target: T1, human CTLA-4 on 58 α-β-CTLA-4/CD3 ζ …; test: flow cytometry (APC mean FI), Fab on 58αβ-CTLA4/mCD3ζ cells, pH 6.7
Description: Antibodies were titrated from 100 μg/mL at a 1:4 dilution across 12 points in pH-specific buffers and incubated for 30-60 minutes. Buffers contained HBSS, 2% FBS^HI, 0.02% sodium azide, 2 mM EDTA, and sodium phosphate buffer (pH 5.4). Sodium phosphate buffer was added until desired pH was reached (7.2, 6.7, 6.2). Approximately 3e5 cells/well were tested for each cell line. […] Detection was done with a monovalent anti-hKappa secondary nanobody conjugated to Alexa647 and used at a dilution of 1:2000. Cells were fixed with BD Fix Solution I for 30 minutes prior to resuspension in pH-specific buffers and reading on the cytometer (BD Fortessa).
The experimental protocol was the same as used to obtain the data of FIGS. 16A-C.

monomeric cyno CTLA-4 = molecular target: T3, monomeric cyno CTLA-4 (cynomolgus macaque (Macaca fascicularis), UniProt G7PL88 36-161); test: SPR, Fab, monomeric cyno CTLA-4 as analyte; koff (s^-1, linear axis 0 to 0.3) plotted against pH
T3 construct: also called CTLA-4 from the cynomolgus macaque Macaca fascicularis
T3 sequence: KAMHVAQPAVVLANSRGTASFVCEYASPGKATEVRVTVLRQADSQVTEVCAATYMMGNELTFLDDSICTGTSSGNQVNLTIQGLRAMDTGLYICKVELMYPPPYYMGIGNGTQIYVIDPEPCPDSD
Description: The pH dependence of binding of selected antibodies of the present invention to human CTLA-4 and cyno CTLA-4 was measured by surface plasmon resonance (SPR) spectroscopy, essentially as described in Example 3. Briefly, antibodies were studied as monovalent Fab fragments. Anti-human kappa polyclonal capture antibody (Southern Biotech, Ala. USA) was immobilized on a ethylenediamine-blocked CM4 sensor chip in a Biacore T200 surface plasmon resonance system. Fab fragments of selected antibodies of the present invention were then captured on one flow cell each. […] Running buffer was 20 mM BisTris, 150 mM NaCl, 0.05% Tween-20, 1 g/L BSA, at a pH ranging from 5.5 to 7.4 in 0.1-0.2 pH unit intervals (12 total). The surface was regenerated with 1/200 H₃PO₄ between cycles. […] Where required, the Rₘₐₓ was fixed by calculating expected binding based on capture level and apparent activity from other fits for the same Fab.

monomeric human CTLA-4 [8] = molecular target: T2, monomeric human CTLA-4; test: SPR, captured Fab, pH 7.4; pH 7.4
Description: (§1) Unless otherwise indicated, experiments were performed with a BIACORE® SPR surface plasmon resonance spectrometer (Biacore AB, Uppsala, Sweden). Antibodies were tested as monovalent Fab fragments to simplify analysis.
(§2) Monomeric human CTLA-4 was flowed as analyte with up to 2 μM top concentration. Between cycles, the capture surface was regenerated with 75 mM phosphoric acid. Experiments were run on a BIACORE® T200 instrument at 37° C. Running buffers were HEPES buffered saline for pH 7.4 experiments and Bis-Tris buffered saline for lower pH experiments. […] Double referenced sensorgrams were fitted to a 1:1 Langmuir binding model with mass transport to determine equilibrium dissociation constants (KD), as well as association (kₐ) and dissociation (kd) rate constants where appropriate.

monomeric human CTLA-4 [9] = molecular target: T2, monomeric human CTLA-4; test: SPR, captured Fab, pH 6.0; remark: listed apart in the source
Description: as §1, §2

monomeric human CTLA-4 [10] = molecular target: T2, monomeric human CTLA-4; test: SPR, captured Fab, pH 7.4; remark: listed apart in the source
Description: as §1, §2

monomeric human CTLA-4 [11] = molecular target: T2, monomeric human CTLA-4; test: SPR, captured Fab, pH 6.0 and pH 7.4
monomeric human CTLA-4 [12] = molecular target: T2, monomeric human CTLA-4; test: SPR, captured Fab, pH 6.0 vs 7.4; remark: listed apart in the source
Description: as §1, §2

B1: ipi.71 (full-length IgG) (antibody, V domains shown)
VH: QVQLVESGGGVVQPGRSLRLSCAASGFTFSHYTMHWVRQAPGKGLEWVTFISYDGHNKYYADSVKGRFTISRDNSKNTLYLQMNSLRAEDTAIYYCARTGWLGPFDYWGQGTLVTVSS
VL: not shown
notes: Full-length bivalent IgG (human IgG1); heavy chain entry is without the C-terminal lysine
[1]
  EC50 (read off the curve): ~1 nM
[2]
  EC50 (read off the curve): ~1 nM
[3]
  EC50 (read off the curve): ~1 nM

B2: ipi.106 Fab (Fab, V domains shown)
VH: QVQLVESGGGVVQPGRSLRLSCAASGFTFSHYTMHWVRQAPGKGLEWVTFISYDGHNKYYADSVKGRFTISRDNSKNTLYLQMNSLRAEDTAIYYCARHGWLGPFDYWGQGTLVTVSS
VL: EIVLTQSPGTLSLSPGERATLSCRASQEVGESELAWYQQKPGQAPRLLIYGAFSRATGIPDRFSGSGSGTDFTLTISRLEPEDFAVYYCQQYGSSPWTFGQGTKVEIKR
notes: Tested as monovalent Fab
Monomeric human CTLA-4 [4]
  Kd: 18 nM
  kon: 1.2e+06 M⁻¹ s⁻¹
  t1/2: 33 s
Monomeric human CTLA-4 [5]
  Kd: > 350 nM
Monomeric human CTLA-4 [6]
  KD 7.4/6 (APBP): > 20
[7]
  EC50 (read off the curve): ~3 µg/mL
Monomeric cyno CTLA-4
  binding result: binds

B3: ipi.90 Fab (Fab, V domains shown)
VH: QVQLVESGGGVVQPGRSLRLSCAASGFTFSHYTMHWVRQAPGKGLEWVTFISYDGNNKYYADSVKGRFTISRDNSKNTLYLQMNSLRAEDTAIYYCARHGWLGPFDYWGQGTLVTVSS
VL: EIVLTQSPGTLSLSPGERATLSCRASQEVGDSELAWYQQKPGQAPRLLIYGAFSRATGIPDRFSGSGSGTDFTLTISRLEPEDFAVYYCQQYGSSPWTFGQGTKVEIKR
notes: Tested as monovalent Fab
Monomeric human CTLA-4 [4]
  Kd: 36 nM
  kon: 1.9e+06 M⁻¹ s⁻¹
  t1/2: 10 s
Monomeric human CTLA-4 [6]
  KD 7.4/6 (APBP): > 28
Monomeric human CTLA-4 [8]
  Kd: > 1000 nM

B4: ipi.3 Fab (Fab, V domains shown)
VH: QVQLVESGGGVVQPGRSLRLSCAASGFTFSSYTMHWVRQAPGKGLEWVTFISYDGNNKYYADSVKGRFTISRDNSKNTLYLQMNSLRAEDTAIYYCARHGWLGPFDYWGQGTLVTVSS
VL: not shown
notes: Tested as monovalent Fab; also called HCDR3 T95H (Kabat)
Monomeric human CTLA-4 [9]
  Kd: 180 nM
  koff: 0.15 s⁻¹
  kon: 840000 M⁻¹ s⁻¹
Monomeric human CTLA-4 [10]
  Kd: 200 nM
  koff: 0.094 s⁻¹
  kon: 480000 M⁻¹ s⁻¹
Monomeric human CTLA-4 [4]
  Kd: 76 nM
  kon: 1.1e+06 M⁻¹ s⁻¹
  t1/2: 9 s
Monomeric human CTLA-4 [5]
  Kd: 97 nM
Monomeric human CTLA-4 [11]
  fold decrease of affinity (increased KD) vs ipilimumab: ~4 fold
Monomeric human CTLA-4 [12]
  KD 7.4/6 (APBP): 0.9
Monomeric human CTLA-4 [6]
  KD 7.4/6 (APBP): 1.3
